Laboratory results: patent publication US20230303660A1

B1: s4-1BBL-TriXV (ligand)
chain: GSGSNWSHPQFEKGGSGGHHHHHHGGSGGGSRNLVTAFSNMDDMLQKAHLVIEGTFIYLRDSTEFFIRVRDGWKKLQLGELIPIPADSGSLDLRQGMFAQLVAQNVLLIDGPLSWYSDPGLAGVSLTGGLSYKEDTKELVVAKAGVYYVFFQLELRRVVAGEGSGSVSLALHLQPLRSAAGAAALALTVDLPPASSEARNSAFGFQGRLLHLSAGQRLGVHLHTEARARHAWQLTQGATVLGLFRVTPEIPAGLPSPRSE
B2: Triple-s4-1BBL-TriXVIII^LL (ligand)
chain: GSGSNWSHPQFEKGGSGGHHHHHHGGSGGGSSGAGGSGGSSGSDGASGSGVRLWATRQAMLGQVHEVPEGWLIFVAEQEELYVRVQNGFRKVQLEARTPLPRGTDNEGSLDLRQGMFAQLVAQNVLLIDGPLSWYSDPGLAGVSLTGGLSYKEDTKELVVAKAGVYYVFFQLELRRVVAGEGSGSVSLALHLQPLRSAAGAAALALTVDLPPASSEARNSAFGFQGRLLHLSAGQRLGVHLHTEARARHAWQLTQGATVLGLFRVTPEIPAGLPSPRSEGGGGSGGGGSGGGGSLDLRQGMFAQLVAQNVLLIDGPLSWYSDPGLAGVSLTGGLSYKEDTKELVVAKAGVYYVFFQLELRRVVAGEGSGSVSLALHLQPLRSAAGAAALALTVDLPPASSEARNSAFGFQGRLLHLSAGQRLGVHLHTEARARHAWQLTQGATVLGLFRVTPEIPAGLPSPRSEGGGGSGGGGSGGGGSLDLRQGMFAQLVAQNVLLIDGPLSWYSDPGLAGVSLTGGLSYKEDTKELVVAKAGVYYVFFQLELRRVVAGEGSGSVSLALHLQPLRSAAGAAALALTVDLPPASSEARNSAFGFQGRLLHLSAGQRLGVHLHTEARARHAWQLTQGATVLGLFRVTPEIPAGLPSPRSE

Molecular target: human 4-1BB (human) (UniProt Q07011)
Test: flow cytometry; dilution series of HEK293T supernatant on Jurkat TPR cells expressing human 4-1BB

Sequence of human 4-1BB (human) (Q07011 24-255): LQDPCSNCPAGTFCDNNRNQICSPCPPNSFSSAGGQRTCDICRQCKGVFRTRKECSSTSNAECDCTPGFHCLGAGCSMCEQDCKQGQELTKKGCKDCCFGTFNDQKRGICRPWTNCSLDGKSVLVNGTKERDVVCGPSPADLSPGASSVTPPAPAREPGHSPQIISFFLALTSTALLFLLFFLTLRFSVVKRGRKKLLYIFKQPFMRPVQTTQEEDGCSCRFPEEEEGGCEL

Binder | supernatant dilution at which binding is no longer detectable (supernatant dilution (1:x))
B1 | 512
B2 | 256
